Source: patent US20080318297A1, “Inhibition of Infiltration, and Cell Killing Agent” (priority 2004, published 2008)

Key:
CD43 antigen = CD43 antigen expression in NALL1 cells by flow cytometer (MEM59 antibody); assay type: cell-based, human; conditions: for CD43 expression: siRNA introduced by lentivirus pLL3.7 vector, GFP positive fraction, vs vacant vector
Excerpt: These siRNAs were expressed in cells to confirm the effects. For introduction of siRNA into cells, a lentivirus system (product of Invitrogen Corporation) which is able to gene introduction into blood cells at high efficiency and an expression vector for lentivirus pLL3.7 (Nat. Genet., 33, 401-406 (2003)) were used. In the pLL3.7 vector, it is possible to introduce a sense/antisense siRNA sequence including a hair-pin structure downstream of a U6 promoter. The pLL3.7 vector expresses Green Fluorescent Protein (GFP) by a CMV promoter at the same time. Accordingly, oligonucleotide including the sense chain, antisense chain, and hair-pin structure of the designed siRNA sequence (CD43-#1 to #5, CD43-$1 to $5; alphabet f at the end of the name indicates the sense chain, and r indicates the antisense chain) was chemically synthesized and then cloned to pLL3.7 vector, followed by introduction into 293 cells together with a vector for virus particle production. After that, siRNA expression lentivirus vector was collected from a supernatant of the culture medium (FIG. 8). Virus infection was caused by co-culture of the virus particles and NALL1 cells to introduce the siRNA into the cells and the siRNA is expressed. GFP was simultaneously expressed in the cells into which the siRNA was introduced by the pLL3.7 vector. Therefore, expression of the CD43 antigen and sialyl Lewis x and the selectin binding ability of the cells in which the GFP expression was observed, i.e. of the cells in which siRNA was expressed, were analyzed by using the antibody MEM59 (product of Monosan) for CD43, sialyl Lewis x antibody CSLEX1, and human chimera-Fc-Ig-E- or P-selectin with the use of a flow cytometer. As a result, in introduction of vacant vector (pLL3.7), a high rate of the CD43 expression was observed irrelevant from GFP positive or negative.
Benzyl-α-N-acetylgalactosamine (Bz-α-GalNAc; product of Sigma-Aldrich Japan, K.K.) which is one of sugar chain synthesis inhibiting agents was added to a culture supernatant of NALL1 cells to detect its binding ability to selectin. Benzyl-α-N-acetylgalactosamine is subject to sugar chain modification like N-acetylgalactosamine added to serine and threonine of a protein when taken into a cell. Therefore, since the original sugar chain modification to a glycoprotein is suppressed by an addition of an excessive amount of benzyl-α-N-acetylgalactosamine, benzyl-α-N-acetylgalactosamine is used as an O-linked sugar chain synthesis inhibiting agent. After adding 4 mM of benzyl-α-N-acetylgalactosamine to the culture supernatant of NALL1 cells, expressions of the CD43 antigen and sialyl Lewis x and binding ability to E- and P-selectin were detected by a flow cytometer after 3 day-culture. […]

sialyl Lewis x = assay: Sialyl Lewis x expression in NALL1 cells by flow cytometer (CSLEX1 antibody); assay type: cell-based, human
Excerpt: Fluorescence intensity and distribution of cell count of a sialyl Lewis x sugar chain antigen which is a major selectin ligand sugar chain were confirmed in flow cytometer by using a CSLEX antibody (antibody specifically recognizing the sialyl Lewis x structure; product of Becton, Dickinson and Company) to which a tandem dye APC-Cy7 was bound in accordance with a method described in J. Biol. Chem., 273, 41, 26779-26789 (1998). Rightward shifting in the histogram means an increase in the fluorescence intensity, i.e. an amount of expression of sialyl Lewis x.
These siRNAs were expressed in cells to confirm the effects. For introduction of siRNA into cells, a lentivirus system (product of Invitrogen Corporation) which is able to gene introduction into blood cells at high efficiency and an expression vector for lentivirus pLL3.7 (Nat. Genet., 33, 401-406 (2003)) were used. In the pLL3.7 vector, it is possible to introduce a sense/antisense siRNA sequence including a hair-pin structure downstream of a U6 promoter. […] Therefore, expression of the CD43 antigen and sialyl Lewis x and the selectin binding ability of the cells in which the GFP expression was observed, i.e. of the cells in which siRNA was expressed, were analyzed by using the antibody MEM59 (product of Monosan) for CD43, sialyl Lewis x antibody CSLEX1, and human chimera-Fc-Ig-E- or P-selectin with the use of a flow cytometer. […]

E-selectin = E-selectin binding ability of NALL1 cells by flow cytometer (human chimera-Fc-Ig-E-selectin); assay type: cell-based
Excerpt: (§1) Likewise, a binding ability to E-selectin and P-selectin was confirmed in flow cytometer through fluorescence intensity and distribution of cell count measured by using a recombinant protein (human chimera-Fc-Ig-E-selectin or human chimera-Fc-Ig-P-selectin; product of R & D Systems) in accordance with the method descried in Blood, 104, 3091-3096 (2004). […] Rightward shifting in the histogram means an increase in the fluorescence intensity, i.e. binding ability to selectin.
(§2) These siRNAs were expressed in cells to confirm the effects. […] Therefore, expression of the CD43 antigen and sialyl Lewis x and the selectin binding ability of the cells in which the GFP expression was observed, i.e. of the cells in which siRNA was expressed, were analyzed by using the antibody MEM59 (product of Monosan) for CD43, sialyl Lewis x antibody CSLEX1, and human chimera-Fc-Ig-E- or P-selectin with the use of a flow cytometer. […]
(§3) Benzyl-α-N-acetylgalactosamine (Bz-α-GalNAc; product of Sigma-Aldrich Japan, K.K.) which is one of sugar chain synthesis inhibiting agents was added to a culture supernatant of NALL1 cells to detect its binding ability to selectin. […] After adding 4 mM of benzyl-α-N-acetylgalactosamine to the culture supernatant of NALL1 cells, expressions of the CD43 antigen and sialyl Lewis x and binding ability to E- and P-selectin were detected by a flow cytometer after 3 day-culture. […]

P-selectin = P-selectin binding ability of NALL1 cells by flow cytometer (human chimera-Fc-Ig-P-selectin); assay type: cell-based
Excerpt: as §1, §2, §3

[1] = siRNA introduced by lentivirus pLL3.7 vector (FIG. 10)

CC(=O)N[C@H]1[C@@H](OCc2ccccc2)O[C@H](CO)[C@H](O)[C@@H]1O [benzyl-α-N-acetylgalactosamine, Benzyl-α-N-acetylgalactosamine, reference compound] was tested, and the “expression of CD43 antigen” value (CD43 antigen; 4 mM, 3 day-culture) was “no change”, the “sialyl Lewis x expression” value (sialyl Lewis x; 4 mM, 3 day-culture) was “remarkably reduced” and the “selectin binding ability (E-selectin)” value (E-selectin; 4 mM, 3 day-culture) was “almost lost”. The “selectin binding ability (P-selectin)” value (P-selectin; 4 mM, 3 day-culture) was “almost lost”.

B1: siCD43-#1-pLL3.7: siRNA for CD43 antigen in pLL3.7 lentivirus vector; CD43 sequence gtgaccctaaggccgacag (nucleic acid)
sense: TGTGACCCTAAGGCCGACAGTTCAAGAGACTGTCGGCCTTAGGGTCACTTTTTTC
antisense: TCGAGAAAAAAGTGACCCTAAGGCCGACAGTCTCTTGAACTGTCGGCCTTAGGGTCACA
modifications: shRNA oligos cloned in pLL3.7 lentivector
With B1 the CD43 expression (CD43 antigen) was “significant reduction”.

B2: siCD43-#5-pLL3.7: siRNA for CD43 antigen in pLL3.7 lentivirus vector; CD43 sequence gcgtaacggggtggtggac (nucleic acid)
sense: TGCGTAACGGGGTGGTGGACTTCAAGAGAGTCCACCACCCCGTTACGCTTTTTTC
antisense: TCGAGAAAAAAGCGTAACGGGGTGGTGGACTCTCTTGAAGTCCACCACCCCGTTACGCA
modifications: shRNA oligos cloned in pLL3.7 lentivector
With B2 the CD43 expression (CD43 antigen) was “significant reduction”.

B3: siCD43-#2-pLL3.7: siRNA for CD43 antigen in pLL3.7 lentivirus vector; CD43 sequence ggccgacagcactggggac (nucleic acid)
sense: TGGCCGACAGCACTGGGGACTTCAAGAGAGTCCCCAGTGCTGTCGGCCTTTTTTC
antisense: TCGAGAAAAAAGGCCGACAGCACTGGGGACTCTCTTGAAGTCCCCAGTGCTGTCGGCCA
modifications: shRNA oligos cloned in pLL3.7 lentivector
In the case of B3, the CD43 expression (CD43 antigen) is reported as “significant reduction”, the “sialyl Lewis x expression” value (sialyl Lewis x; [1]) is reported as “remarkable reductions” and the “selectin binding ability (E-selectin)” value (E-selectin; [1]) is reported as “remarkable reductions”. For the same molecule, the “selectin binding ability (P-selectin)” value (P-selectin; [1]) was “remarkable reductions”.
